Experimental data published in patent publication US20240360233A1 (University of Texas, published 2024).

T1: TSLPR on TSLPR-expressing REH cells (UniProt Q9HC73 23-371)
T1 sequence (looked up): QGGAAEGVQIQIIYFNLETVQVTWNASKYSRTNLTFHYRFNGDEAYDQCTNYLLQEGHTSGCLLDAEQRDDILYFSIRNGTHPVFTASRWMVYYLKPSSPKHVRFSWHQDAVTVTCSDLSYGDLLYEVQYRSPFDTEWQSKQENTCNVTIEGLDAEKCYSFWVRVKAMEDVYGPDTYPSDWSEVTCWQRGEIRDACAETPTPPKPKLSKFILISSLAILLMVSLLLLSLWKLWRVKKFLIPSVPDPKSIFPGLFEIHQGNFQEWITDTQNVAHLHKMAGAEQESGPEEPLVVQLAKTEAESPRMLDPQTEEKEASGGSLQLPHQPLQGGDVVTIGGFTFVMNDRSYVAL

T2: his-tagged TSLPR (TSLPR-HIS) (UniProt Q9HC73 23-231, limits assumed)
T2 construct: Soluble protein used in the ForteBio assay; not shown: His tag
T2 sequence (looked up): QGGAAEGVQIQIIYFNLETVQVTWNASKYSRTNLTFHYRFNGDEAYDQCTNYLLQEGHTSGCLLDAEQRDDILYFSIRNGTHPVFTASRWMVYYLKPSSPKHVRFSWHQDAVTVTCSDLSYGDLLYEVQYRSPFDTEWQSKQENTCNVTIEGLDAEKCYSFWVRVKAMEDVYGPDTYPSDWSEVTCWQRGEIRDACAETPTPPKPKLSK

T3: human TSLPR protein (human, UniProt Q9HC73 23-231, limits assumed)
T3 sequence (looked up): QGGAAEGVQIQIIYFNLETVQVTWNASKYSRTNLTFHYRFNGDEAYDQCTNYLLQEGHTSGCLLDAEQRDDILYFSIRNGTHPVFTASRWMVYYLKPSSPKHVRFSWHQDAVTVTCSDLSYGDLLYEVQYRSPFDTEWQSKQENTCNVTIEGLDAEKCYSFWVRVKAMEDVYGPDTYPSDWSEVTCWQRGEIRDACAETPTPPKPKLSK


Key:
[1] = molecular target: T1, TSLPR on TSLPR-expressing REH cells; assay: cell-based or functional assay
[2] = molecular target: T2, his-tagged TSLPR (TSLPR-HIS); assay: BLI (ForteBio AHQ sensor), antibody captured, TSLPR-HIS in solution
Experimental: TSLPR antibody clones whose VH and VL sequences are disclosed in Tables 9 and 10 were bound to the AHQ sensor and his-tagged TSLPR (TSLPR-HIS) was provided in solution. […] The anti-TSLPR antibodies were serially diluted with an HBS-EP solution (GE Healthcare), and 100 μL of the solution was added to the flow path at a flow rate of […].

[3] = molecular target: T3, human TSLPR protein; assay: SPR (BIAcore)
[4] = molecular target: cynomolgus TSLPR (cynomolgus); assay: SPR (BIAcore)

EC50 (Promega ADCC reporter assay, RLU) [1] [nM] | Kd [2] [nM] | koff [2] [s⁻¹] | kon [2] [M⁻¹ s⁻¹] | Kd [3] [nM] | Kd [4] [nM] | Binder
0.03 | 4.45 | 0.000769 | 173000 | – | – | TSLPR antibody clone 1A9 (antibody, V domains shown, also called TSLPR-4; TSLPR-004) VH: QVQLQESGPGLVKPSETLSLTCAVSGYSISSGYYWGWIRQPPGKGLEWIGRIYHSGTTSYNPSLKRRVTISVDTSKNQFSLKLSSVTATDTAVYYCARNWGGNWFDPWGQGTLVTVSS VL: EIVLTQSPATLSLSPGERATLSCRASQSVSSYLAWYQQKPGQAPRLLIYDASNRATGIPARFSGSGSGTDFTLTISSLEPEDFAVYYCQQRSTWLTFGGGTKVDIKR
0.08 | 2.82 | 0.00079 | 280000 | ~2.87 | ~2.03 | TSLPR antibody clone 1B7 (antibody, V domains shown, also called TSLPR-6; TSLPR-006) VH: QVQLQESGPGLVKPSGTLSLTCAVSGGSISSSNWWSWVRQPPGKGLEWIGEIYHGGTTNNNPSLKSRVTISVDKSKSQFSLKLSSVTAADTAVYYCARHRYSNGLDYWGQGTLVTVSS VL: not shown
